Test system: Escherichia coli TOP10
Assay: shrunken log2 fold change of peptide-encoding DNA abundance (4.5 h post-induction vs induction); higher = less antimicrobial activity (less host growth inhibition)
Conditions: time post-induction: 4.5 h; library: site-saturation at positions 5, 18, 19, 20
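Further: peptides expressed intracellularly from a pBAD plasmid library in pooled LB shake-flask culture, induced with 0.3% L-arabinose, DNA abundance read by NGS, three biological replicates, DESeq2 with apeglm shrinkage.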

Row | Sequence | shrunken log2 fold change
1 | RRIRCRPPRLPRPRPRPYCTPRP | -0.503
2 | RRIRCRPPRLPRPRPRPANEPRP | 0.0681
3 | RRIRQRPPRLPRPRPRPAVLPRP | 0.0386
4 | RRIRYRPPRLPRPRPRPERTPRP | 0.0654
5 | RRIRWRPPRLPRPRPRPWTYPRP | -0.0122
6 | RRIRGRPPRLPRPRPRPSPRPRP | 0.927
7 | RRIRHRPPRLPRPRPRPQRKPRP | -0.191
8 | RRIRWRPPRLPRPRPRPWYRPRP | -0.174
9 | RRIRPRPPRLPRPRPRPIFLPRP | 0.124
10 | RRIRNRPPRLPRPRPRPCRYPRP | -0.148
11 | RRIRGRPPRLPRPRPRPYHYPRP | -0.149
12 | RRIRIRPPRLPRPRPRPQGHPRP | -0.0464
13 | RRIRFRPPRLPRPRPRPSMEPRP | -0.202
14 | RRIRDRPPRLPRPRPRPSAVPRP | 0.291
15 | RRIRKRPPRLPRPRPRPWVSPRP | 0.345
16 | RRIRRRPPRLPRPRPRPAQDPRP | 0.349
17 | RRIRDRPPRLPRPRPRPTTMPRP | 0.0275
18 | RRIRERPPRLPRPRPRPRKMPRP | -0.0569
19 | RRIRVRPPRLPRPRPRPPHSPRP | 0.108
20 | RRIRKRPPRLPRPRPRPKPNPRP | 0.516
21 | RRIRGRPPRLPRPRPRPPVTPRP | 0.728
22 | RRIRARPPRLPRPRPRPPVDPRP | 0.545
23 | RRIRNRPPRLPRPRPRPPCDPRP | -0.0173
24 | RRIRDRPPRLPRPRPRPNPGPRP | -0.117
25 | RRIRLRPPRLPRPRPRPYIQPRP | -0.337

Row | Sequence | shrunken log2 fold change
26 | RRIRNRPPRLPRPRPRPCFIPRP | -0.86
27 | RRIRGRPPRLPRPRPRPSSVPRP | 0.282
28 | RRIRCRPPRLPRPRPRPKWWPRP | 0.0539
29 | RRIRNRPPRLPRPRPRPWINPRP | -0.0185
30 | RRIRVRPPRLPRPRPRPGCVPRP | 0.267
31 | RRIRYRPPRLPRPRPRPITSPRP | 0.0314
32 | RRIRFRPPRLPRPRPRPLWNPRP | -0.89
33 | RRIRARPPRLPRPRPRPEQYPRP | -0.0243
34 | RRIRERPPRLPRPRPRPHWIPRP | -0.117
35 | RRIRVRPPRLPRPRPRPRNPPRP | 0.148
36 | RRIRARPPRLPRPRPRPALDPRP | 0.756
37 | RRIRIRPPRLPRPRPRPNDQPRP | -0.43
38 | RRIRRRPPRLPRPRPRPDWHPRP | -0.0494
39 | RRIRNRPPRLPRPRPRPCFMPRP | -0.742
40 | RRIRQRPPRLPRPRPRPIKLPRP | -0.0569
41 | RRIRMRPPRLPRPRPRPASIPRP | -0.015
42 | RRIRNRPPRLPRPRPRPHWDPRP | -0.136
43 | RRIRHRPPRLPRPRPRPKEYPRP | -0.0937
44 | RRIRRRPPRLPRPRPRPYRIPRP | -0.594
45 | RRIRYRPPRLPRPRPRPNMCPRP | 0.00841
46 | RRIRERPPRLPRPRPRPQASPRP | -0.328
47 | RRIRERPPRLPRPRPRPRLKPRP | -0.0205
48 | RRIRLRPPRLPRPRPRPNKHPRP | -0.43
49 | RRIRERPPRLPRPRPRPITGPRP | -0.0908
50 | RRIRMRPPRLPRPRPRPRPCPRP | 0.586

Row | Sequence | shrunken log2 fold change
51 | RRIRRRPPRLPRPRPRPFTNPRP | 0.103
52 | RRIRLRPPRLPRPRPRPPIHPRP | -0.117
53 | RRIRSRPPRLPRPRPRPRVRPRP | 0.217
54 | RRIRERPPRLPRPRPRPYIIPRP | -0.837
55 | RRIRHRPPRLPRPRPRPAECPRP | -0.696
56 | RRIRLRPPRLPRPRPRPNGKPRP | -0.0324
57 | RRIRPRPPRLPRPRPRPLERPRP | 0.277
58 | RRIRWRPPRLPRPRPRPHATPRP | 0.816
59 | RRIRNRPPRLPRPRPRPRHGPRP | -0.0314
60 | RRIRFRPPRLPRPRPRPRGDPRP | 0.477
61 | RRIRDRPPRLPRPRPRPWGAPRP | 0.305
62 | RRIRSRPPRLPRPRPRPYMSPRP | -0.355
63 | RRIRERPPRLPRPRPRPMYFPRP | -0.251
64 | RRIRCRPPRLPRPRPRPRESPRP | 0.155
65 | RRIRDRPPRLPRPRPRPTNSPRP | 0.115
66 | RRIRGRPPRLPRPRPRPHKPPRP | 0.388
67 | RRIRERPPRLPRPRPRPSGTPRP | -0.117
68 | RRIRTRPPRLPRPRPRPLVGPRP | 0.131
69 | RRIRHRPPRLPRPRPRPFIVPRP | -0.319
70 | RRIRKRPPRLPRPRPRPDMRPRP | 0.0676
71 | RRIRWRPPRLPRPRPRPMSHPRP | -0.132
72 | RRIRERPPRLPRPRPRPNPTPRP | 0.00617
73 | RRIRHRPPRLPRPRPRPLRRPRP | 0.3
74 | RRIRNRPPRLPRPRPRPVWGPRP | 0.283
75 | RRIRLRPPRLPRPRPRPEKCPRP | -0.0157
